From paper PMC11860134, “PET Imaging of CD206 Macrophages in Bleomycin-Induced Lung Injury Mouse Model” (Pharmaceutics, 2025)

Key:
[1] = molecular target: T1, murine CD206 (Recombinant mouse MMR/CD206 protein) (Mus musculus, UniProt Q61830); experiment: CD206 plate binding assay; details: 1 µg CD206 per well, 2 µg (0.1 µCi) tracer, n = 10
T1 construct: purchased R&D Systems
T1 sequence (Q61830 19-1388 limits assumed): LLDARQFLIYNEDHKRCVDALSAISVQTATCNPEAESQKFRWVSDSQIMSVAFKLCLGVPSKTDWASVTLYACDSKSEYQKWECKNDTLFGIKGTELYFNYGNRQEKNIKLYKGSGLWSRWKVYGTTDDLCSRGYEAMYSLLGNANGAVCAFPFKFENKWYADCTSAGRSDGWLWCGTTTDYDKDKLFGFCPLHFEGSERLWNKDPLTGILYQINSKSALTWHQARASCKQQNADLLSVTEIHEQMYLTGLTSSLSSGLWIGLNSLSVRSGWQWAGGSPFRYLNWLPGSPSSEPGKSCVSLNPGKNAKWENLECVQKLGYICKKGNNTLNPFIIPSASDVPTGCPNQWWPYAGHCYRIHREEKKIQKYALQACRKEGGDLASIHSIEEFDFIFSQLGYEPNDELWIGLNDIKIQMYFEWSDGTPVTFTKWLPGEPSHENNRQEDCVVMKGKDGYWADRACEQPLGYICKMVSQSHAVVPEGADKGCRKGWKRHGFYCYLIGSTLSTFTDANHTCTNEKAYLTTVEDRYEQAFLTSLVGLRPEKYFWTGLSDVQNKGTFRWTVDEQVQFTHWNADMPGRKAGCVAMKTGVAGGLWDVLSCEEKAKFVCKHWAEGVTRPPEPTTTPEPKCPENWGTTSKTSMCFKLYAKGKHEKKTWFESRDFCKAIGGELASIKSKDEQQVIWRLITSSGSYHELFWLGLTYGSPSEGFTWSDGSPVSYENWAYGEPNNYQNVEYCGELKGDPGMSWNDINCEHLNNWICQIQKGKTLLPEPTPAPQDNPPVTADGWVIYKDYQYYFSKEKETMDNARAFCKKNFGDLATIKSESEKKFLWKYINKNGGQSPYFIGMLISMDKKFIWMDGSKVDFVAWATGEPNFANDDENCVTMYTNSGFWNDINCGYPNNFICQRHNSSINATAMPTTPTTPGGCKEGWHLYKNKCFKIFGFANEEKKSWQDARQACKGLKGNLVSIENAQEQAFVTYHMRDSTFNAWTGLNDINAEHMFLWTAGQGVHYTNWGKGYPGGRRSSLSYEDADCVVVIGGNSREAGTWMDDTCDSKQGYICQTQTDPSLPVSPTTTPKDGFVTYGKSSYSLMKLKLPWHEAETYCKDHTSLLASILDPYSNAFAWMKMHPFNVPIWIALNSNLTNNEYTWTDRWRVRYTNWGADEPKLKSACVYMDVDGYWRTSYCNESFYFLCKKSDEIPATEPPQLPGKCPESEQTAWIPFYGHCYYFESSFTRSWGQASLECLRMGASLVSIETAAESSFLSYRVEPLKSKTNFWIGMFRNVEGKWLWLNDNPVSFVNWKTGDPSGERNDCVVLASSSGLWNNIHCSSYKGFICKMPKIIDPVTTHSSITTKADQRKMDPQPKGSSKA
Protocol: The affinity of linear and cyclic RP832c to murine CD206 (Recombinant mouse MMR/CD206 protein, R&D Systems, Minneapolis, MN, USA) protein was tested via plate binding study using blocking and non-blocking groups. 48 h before the experiment 1 µg of CD206 (in 0.1 mL 15 mM Na2CO3, 35 mM NaHCO3) was added to each well of 96-well flat bottom plate. The plate was kept at 4 °C for 48 h. On the day of the study, 5 µg (0.1 mL aqueous solution) of linear or cyclic RP832c was added to each well (n = 10) of each blocking group and was incubated at 37 °C for an hour. Then, 2 µg (0.1 µCi) of [^68Ga]RP832c was added to each well (n = 10 for each group) of both blocking and non-blocking groups. Both groups were incubated at 37 °C for an hour. Wells were rinsed with PBS (pH = 7) three times. Three wells were used as standards. Each well of the blocking and non-blocking groups and the standards were measured via the HIDEX gamma counter (Lablogic, Clair-Mel City, FL, USA). Data were decay corrected, and binding (%) values were calculated according to standards.

[2] = test system: collagen I and III fibers; experiment: Picro Sirius Red (PSR) staining of lung sections, ImageJ quantification; assay type: in vivo, mouse; details: lungs of BLM cohort given the tracer
Protocol: Following PET/CT imaging, lungs from all cohorts (bleomycin-induced lung injury model administered with linear or cyclic [^68Ga]Ga-RP832c, healthy mice administered with linear or cyclic [^68Ga]Ga-RP832c, and mice not administered bleomycin) were collected and fixed in 10% formalin. After 48 h of fixation, the lungs were transferred to 70% ethanol and after an additional 24 h, samples were sent for preparation of tissue sections. Tissue sections were prepared by the UAB Pathology Core Research Laboratory, Birmingham, AL, USA. Subsequently, tissue sections were stained with CD206 (Mouse MMR/CD206 Antibody (20 µg/mL, Cat: AF2535, R&D, Minneapolis, MN, USA). The secondary antibody was the Rabbit anti-goat IgG (H+L) HRP (1:2000 dilution, Cat no: 81-1620, Invitrogen, Waltham MA, USA). Picro Sirius Red Staining was conducted using a commercial kit (Picro Sirius Red Stain Kit, ab150681, Abcam, Waltham, MA, USA). Collagen was stained in red while muscle fibers and cytoplasm were stained in yellow.
Picro Sirius Red staining was carried out to detect collagens due to pulmonary fibrosis. The kit is intended for use in the histological visualization of collagen I and III fibers. Picro Sirius Red solution was applied to completely cover the tissue section and then the sample was incubated for 60 min. Slides were rinsed twice in acetic acid solution (0.5%). Slides were rinsed in absolute alcohol and dehydrated in 2 changes in absolute alcohol. The mounting media used was Permount™ Mounting Medium, Pittsburgh, PA, USA. CD206-, PSR-, and H&E-stained samples were imaged using EVOS™ M7000 Imaging System (Invitrogen, Waltham, MA, USA). For IHC semi-quantification, all slides were scored under a light microscope according to the degree of staining (0 points negative for staining, 1 point light yellow, 2 points light brown, and 3 points dark brown) and the range of positivity (1 points 0 to 25%, 2 points 26 to 50%, 3 points 51 to 75%, and 4 points 76 to 100%), and the final scores were summed for analysis.

In the case of RWKFGGFKWR [cyclic [^68Ga]Ga-RP832c], the “CD206 plate binding %” value ([1]; blocking: 5 µg linear or cyclic RP832c, 37 °C 1 h before tracer) was 10.36 ± 0.44%, the “CD206 plate binding %” value ([1]; non-blocking, 37 °C 1 h, gamma counter) was 37.60 ± 1.40% and the “area % values for PSR staining (ImageJ)” value ([2]; 1 week post bleomycin instillation) was 0.86 ± 0.44%. For the same sequence, the “area % values for PSR staining (ImageJ)” value ([2]; 2 weeks post bleomycin instillation) was 1.28 ± 1.06% and the “area % values for PSR staining (ImageJ)” value ([2]; 3 weeks post bleomycin instillation) was 1.36 ± 0.75%.
